For four molecules, ELISA signal results are on record in patent publication US12065483.

In assay [1] the target is Influenza Hemagglutinin B (influenza B virus). Briefly: ELISA on Influenza Hemagglutinin B (1 ug/mL); 293 supernatant diluted 1:10000. For orientation: In an ELISA, binding on a coated surface is turned into a signal by an enzyme label.
For assay [2] the target is unchanged. Briefly: ELISA on Influenza Hemagglutinin B (1 ug/mL); 293 supernatant diluted 1:1000.
The target is the same in assay [3]. Kind of assay: ELISA on Influenza Hemagglutinin B (1 ug/mL); 293 supernatant diluted 1:100.
The target of assay [4] is Influenza Hemagglutinin A (influenza A virus). Briefly: ELISA on Influenza Hemagglutinin A (1 ug/mL); 293 supernatant diluted 1:1000.
For assay [5] the target is unchanged. Briefly: ELISA on Influenza Hemagglutinin A (1 ug/mL); 293 supernatant diluted 1:10.
Assay [6] shares this target. Kind of assay: ELISA on Influenza Hemagglutinin A (1 ug/mL); 293 supernatant diluted 1:10000.
Assay [7] shares this target. Kind of assay: ELISA on Influenza Hemagglutinin A (1 ug/mL); 293 supernatant diluted 1:100.
The target of assay [8] is Influenza Hemagglutinin B (influenza B virus). Kind of assay: ELISA on Influenza Hemagglutinin B (1 ug/mL); 293 supernatant diluted 1:10.

B1: F1-04 (VHH)
VHH: QVQLVESGGGLVQVGGSLRLSCAASERPSSNYAMGWFRQAPGKEQEFVAAIYWSGGGTAYGDSVKGRFTISKDNAKNTVYLQMNDLKPEDTGMYYCTTDHYGSWSYEYGSWGQGTQVTVSS
As to B1, the ELISA signal in assay [1] came out at 0.205; in assay [2] it was 0.738; in assay [3], 1.63; in assay [4] it was 0.366; in assay [5], 1.76; in assay [6], 0.058. In addition, the ELISA signal in assay [7] was 2; in assay [8], 1.47.

B2: F2-20 (VHH)
VHH: QVQLVESGGGLVQAGGSLRLSCAASGRTFSRYAMGWFRQAPGKEREFVARISWSGDITYYADSVKGRFTISRDNAKNTVYLQMNSLKPEDTAVYYCAADAILRTRPPYESDYWGQGTQVTVSS
Turning to B2, the ELISA signal in assay [1] is 0.805; in assay [2], 1.2; in assay [3], 1.52; in assay [4] it was 0.442; in assay [5], 0.884; in assay [6], 0.269. Moreover, the values for the ELISA signal in assay [7] and in assay [8] were 0.629 and 1.58, respectively.

B3: F2-24 (VHH)
VHH: QVQLVESGGGLVQAGGSLRLSCASSGHTFNSYVMGWFRQAPGKEREFVAAIRPSGVSTYYADSVKGRFTISRDNAKNTVSLEMNSLKPEDTAVYYCAGDRDHSMMAVRRLSSYRQWGRGTQVTVSS
Consider B3, for which the ELISA signal was 1.45 in assay [1]; 1.63 in assay [2]; 1.85 in assay [3]; 0.279 in assay [4]; 0.444 in assay [5]; 0.15 in assay [6]. Further, the ELISA signal in assay [7] was 0.427; in assay [8] it was 1.69.

B4: F2-02 (VHH)
VHH: QVQLVESGGGLVQAGGSLRLSCAASGRTFRSFAMGWFRQAPGKEREFVATISWWSNNTYYADSVKGRFTISRDIAKNTVYLQMNSLKPEDTAVYYCAADLGPWLTAGQYDYWGQGTQVTVSS
Turning to B4, the ELISA signal in assay [1] worked out at 0.266; in assay [2], 0.61; in assay [3] it was 0.863; in assay [4], 0.73; in assay [5] it was 1.21; in assay [6] it was 0.405. Moreover, the ELISA signal came out at 1.09 in assay [7] and 0.826 in assay [8].
